Reference: the DeepSol protein solubility set

Assay: soluble on expression in E. coli; label from the status in PepcDB or PDB records
For “MGHHHHHHSHMNILFLQWKVKLPPQKEVITSDELMAHLGNCLLSIKPQEKSEGLQLNFQQNVDDAMTVLPKLATGLDVNVRFTGVSDFEYTPECSVFDLLGIPLYHGWLVDPQSPEAVRAVGKLSYNQLVERIITCKHSSDTNLVTEGLIAEQFPETTAAQLTYHGLCELTAAAKEGELSVFFRNNHFSTMTKHKSHLYLLVTDQGFLQEEQVVWESLHNVDGDSCFCDSDFHLRHSLGKGPGAEGGSGSPEKQLQVDQDYLIALSLQQQQPRGPLGLTDLELAQQLQQEEYQQQQAAQPVRMRTRVLSLQGRGATSGRPAGERRQRPKHESDCILL”, the “soluble on expression in E. coli” value was “not soluble”.
In the case of “MLDVPHGKFGFTKGCIIAVILLSLSRTLNRGQLNLERFEFWQPTSQLLALDVCLRDAFALEHHHHHH”, the “soluble on expression in E. coli” value is reported as “not soluble”.
For “MGHHHHHHSHNEPEDSKLRFETYQLIWQQMKSENERLQEELNKNLFDNLIEFLQKSHSGFQKNSRDLGGQIKLREIPTAALVLGVNVTDHDLTFGSLTEALQNNVTPYVVSLQAKDCPDMKHFLQKLISQLMDCCVDIKSKEEESVHVTQRKTHYSMDSLSSWYMTVTQKTDP”, the “soluble on expression in E. coli” value was “not soluble”.
In the case of “MSLEIKPEDTWRLEDIFSTDDAWEKEFQEVKQLLPDAGGFQGKLGDSADKLYEALQYQDHLLERLGRLYSYAHMRYDQDTTNSFYQGLDDRIKNLYSQAASSLAYIVPEILAIDEEKISSFLDEKEELRLYKHSLEEINLQRPHVLSAEAEALLAQASEVLDAPGNTFGMLNNADLEFPSIKDENGEEVEVTHGRYIRFLESDDQRVRRDAFKAVYDTYGKFKNTFSSTLSSNVKKDNFYARVRNYDSARHAALSDNNIPESVYENLVNTVNDNLHLLHRYIKLRKEVLGLEKLHMYDLFTPLVKDVKMEIPYDEAKDYVLKGLEPLGEEYLSVLKEGFENRWVDVHENKGKRSGAYSSGAYGTNPYILMNWQDNVNNLFTLAHEFGHSVHSYYTRKTQPYPYGNYSIFVAEVASTCNEALLNDYLLKTIDDDQKRLYLLNHYLEGFRGTVFRQTMFAEFEHQIHQKAQNNEALTAEALTQDYYELNKKYFGEEDIIIDEEIGLEWSRIPHFYYNYYVYQYATGFSAATALSKQILEEGEPAVERYINFLKAGSSDYPIEVLKKAGVDMTSPAPIADACKVFEEKLNEMEELLNREGHHHHHH”, the “soluble on expression in E. coli” value is reported as “soluble”.
For “MRIDFGAGDEISFIKKGHAGVIKLARSSALNALNGRMVSALKKALSVWETDDDVSCVLIEGEGRAFCAGGDVVEIYHMEEKISSYQYFNDEYRLNAYIKHFRKPYISFLNGIWMGGGVGISIYGSHRIVTENTLFAMPESAIGFFPDVGASFFLPSLPDHFGIYLALTGARIKWGDCLNLGLATHAVPEIELECIRKAIIEQGNPQLALEEHAITKDYETSHEIRSVINACFGTHTLEECMELLYKKSNEGLFFARECYDILQSRSPTSLKVIWKQMKQNSSQTLEECMKIENRIAHHMINSHDFREGVRAMLIDKDKTPKWQPDKLSNITDEMIDAYFQPVEKELLF”, the “soluble on expression in E. coli” value was “not soluble”.
For “MGSDKIHHHHHHMKFLRSLAFLNLQKKFKNKFNINILDYIKPKPTKICFKDFENKYLTAKQKEVLFDIESNNYSKVIFSGGIASGKTFLASYLLVKKLIENKSFYEQDTNNFIIGNSIGLLMTNTVKQIEKICSLLGIDYEKKKSGQSFCKIAGLKLNIYGGKNRDAFSKIRGGNSAIIYVNEATVIHRETLLEVIKRLRKGKEIIIFDTNPESPAHYFKTDYIENTDVFKTYNFTTYDNPLNSADFIQTQEKLYRRFPAYRARVLYGEWILNESTLFNEMIFNQDYEFKSPIMYIDPAFSVGGDNTAICVLERTFEKFYAYIYQDQKPVSDSLMLASIQVLIENFNVNTVYIEERDSTKGDGILTKTILFLRNKSSHYFKVAPIKPLSNKFKRICALIPLFESRKIEFLKIISKNVISDIYSYKGDGKTKDDALDSLANAYLLLTLNYKEKLFHFGRFKYL”, the “soluble on expression in E. coli” value was “not soluble”.
With “MKMQKELSVYLKQILQAAQYIRLYTDKMDYGQFSADTKTVQAVVFNLFLIGENATHILKSYPEFAEETKYLNWIGMRGYCAIGLPMATLK” the “soluble on expression in E. coli” value was “not soluble”.
With “QCGACGESYAADEFWICCDLCEMWFHGKCVKITPARAEHIKQYKCPSCSNK” the “soluble on expression in E. coli” value was “soluble”.
In the case of “MKDLLTRRFVLNSKEVREGDVFVAVKGKRFDGHDFIDEALRNGAYAIIAERKTVNSDRIFLVESSVDTLAKLAREKLGNFSGTVVGVTGSSGKTTTKEILYNLLKNKRSVFKTPGNMNTEYGLPLSILNDYKGEEILVLEMAASRPGDIAHLCKIAPPDVAVLLNVGSAHLEFFGTRERIMETKMEIIKHSKENAIAVTLFDDPDLRKEVPRYRNTLFFGKEGGDSVLKDWWYYEGSTIAEFEAFDSLFTVKLSGYWNGGQLLNIAASLCVMRTLGETVDIFDLASLKTVPGRFNVREKKGVLIVDDTYNASPEAFQTSIEALLRFPGKKFAVVGAMKELGERSKEFHEELGERLNVLDGVYVFLSEPEAEWIKSKKIILKSDDPEKIAKDLATRVKKGDVVLFKASRAVRIERVLEMFEKELEKR”, the “soluble on expression in E. coli” value is reported as “soluble”.
In the case of “GSNSQVWSALQMSKALQDSAPDRPSPVERIVSRDIARGYERIPIPCVNAVDSEPCPSNYKYVSQNCVTSPMNIDRNITHLQYCVCIDDCSSSNCMCGQLSMRCWYDKDGRLLPEFNMAEPPLIFECNHACSCWRNCRNRVVQNGLRARLQLYRTRDMGWGVRSLQDIPPGTFVCEYVGELISDSEADVREEDSYLFDLDNKDGEVYCIDARFYGNVSRFINHHCEPNLVPVRVFMAHQDLRFPRIAFFSTRLIEAGEQLGFDYGERFWDIKGKLFSCRCGSPKCRHS”, the “soluble on expression in E. coli” value is reported as “soluble”.
In the case of “MEKNYYVCTGCGMLCDDIEVDVENNKINKVYTACRIGVAHMKDGKESAAFLVDNKPVDETTAISEAATILKNAKNPLIFGLGTSSNEAQKLAIELAKKTSATLDDASSFSLGEVIEALLNNKTKVCTLDDVRNKADVSIFWGTDPSDSHPRQLSKYAYFPRGTEKQRGWEEERTAICIDVRKSHTAKICGNYFFQIPPGGDAEFIDALIAALAGKLPKTSYNFPPKRILELANILKGAKFGVVFAGRGLVYSLDNLEPLIRLMNALNEKANFHLVPMIRQYNTRGFNENLFKETGYVNSVKFEDGTVKHGPEYSVVESLKEKTVDAALIIGSDPFSILPRSIAKNLLEVPVIVLDPCETLTSRNAKVYISTAIDGVESGGSAIRMDGVKVDFKPAVETKRPSDETVLKKIMEAL”, the “soluble on expression in E. coli” value is reported as “not soluble”.
In the case of “MGSDKIHHHHHHMDITQLKMFQTVVECGTMAKASLQLHCVPSNITTRIKQLEEELGAPLFYREGKSLKLTPSGEIFLDYCHKILALCDEAKRSIHPDAPPSGPLKIGAIESSATTRLPNLLAKYHQRYPEVSIQIITGTWKQLLVDISQHKLDGAIVAGNIEFPMLNKLSIYQEDMVLIASHSLGEIRCQEDLIGKEIFMWTEGCPYRAALEEWLKLKNISLPITSITSYATIIGCVSAGSGVALVPKSIYEQYKNLAHIQSYKFEYLAFMQNHFFWHKNVSNHKARDMFIELIKSEFCL”, the “soluble on expression in E. coli” value is reported as “not soluble”.
In the case of “MEKLTMQEEEVMIYIWELESCYVKDIVAKFEQPTPPYTTVASIVKNLERKKYVKAQRVGNTYLYTPSIKESEYKRSFMSGVVRNYFENSYKEMVSFFAKDQKISTNDLKEIIDMIEKGQEK”, the “soluble on expression in E. coli” value is reported as “not soluble”.
In the case of “GMEGLVMNTRRALFADWRVREAMLLAFDFDLINRTLTGGAEPRIASYFSNSALGMEAGAPATGRERALLEPFAADLLPGTLDGYALPATHGASNRGNLRKAARLLSEAGWRIEDGMLEGPGGTPFAFEILLPQGADAMIAASIIYRQALTRLGISARITTVDPAQFKQRVDNQDFDMTSFLRSLTLSPGNEQLLYWSAEDKDLPGSRNLMGMESPAAEAVIRHMLATDDAEEFQASVRALDRVLTAGRYVIPMWYSR”, the “soluble on expression in E. coli” value is reported as “not soluble”.
With “MSLTRDAASITPARVRAHVFRYPVSTPVKTSFGTMHDRPAVLVEVEDSDGAVGWGEVWCNFPACGAEHRARLVETVLAPLLTARAFADPAQAFAHLEARTAVLAIQTGEPGPLAQAIAGLDIALCDLAARRAGQPLWAWLGGSGDRIGVYASGINPENPEDVVARKAAEGYRAFKLKVGFDDARDVRNALHVRELLGAATPLMADANQGWDLPRARQMAQRLGPAQLDWLEEPLRADRPAAEWAELAQAAPMPLAGGENIAGVAAFETALAARSLRVMQPDLAKWGGFSGCLPVARAVVAAGLRYCPHYLGAGIGLQASAHLLAAVPGLASPGLLEVDANDNPLRSLLSPALATLHEGRITLGGAPGLGVTPDLAALRAACAAREGHHHHHH” the “soluble on expression in E. coli” value was “soluble”.
In the case of “GPVDMTERLKVMTIFGTRPEAIKMAPLVLELQKHPEKIESIVTVTAQHRQMLDQVLSIFGITPDFDLNIMKDRQTLIDITTRGLEGLDKVMKEAKPDIVLVHGDTTTTFIASLAAFYNQIPVGHVEAGLRTWDKYSPYPEEMNRQLTGVMADLHFSPTAKSATNLQKENKDESRIFITGNTAIDALKTTVKETYSHPVLEKLGNNRLVLMTAHRRENLGEPMRNMFRAIKRLVDKHEDVQVVYPVHMNPVVRETANDILGDYGRIHLIEPLDVIDFHNVAARSYLMLTDSGGVQEEAPSLGVPVLVLRDTTERPEGIEAGTLKLAGTDEETIFSLADELLSDKEAHDKMSKASNPYGDGRASERIVEAILKHFNK”, the “soluble on expression in E. coli” value is reported as “soluble”.
For “MGSDKIHHHHHHMTKIESLGSVKRKAVNISPEDLIKTEFLQPGNNFPLVIKPNVKGVDLQNWAKNNREFLKAELLKYGAILFRDFKVKSIEEFEQIIAAICGEAMEYRYRASPRTQVGGRIYTSTDYPAEQSIFPHNEHAYSPTFPLKIFFFCMSPAAQGGETPIGSCRKVFERIHPDIRDRFIQKKVMYMRNFGDGFGLPWQTVFQTTDKTKVEEYCKINGIEVEWKADNRLRTRQVGPVVLKHPQTGEMVWFNHATFFHVSTLESTIRDSLLTNLPEEDLPTNTYYGDGSAIEPSVLAELRAAYQQEMVTFSWEKGHVLMLDNMLSIHARQPFVPPRKILVGMAEAHTPIPLG”, the “soluble on expression in E. coli” value was “not soluble”.
In the case of “MSLYYKVAVSGSGKVLNVFSSEELLIGERVWLNWRNGKVKGYVLERSLSHENEATPSERDGKSFLSEGHVEIAKWVSERFFSPLGMVFDLFFPQGIDDYKEEVVVSESPFLDFDRMTLRDFLENFGEKALKEMVKKGLVRVEKNFYVKEPRPRVKKRLFLKKRISEIIREHLTVKQRMVVEYLQFNDGVPLEELLEDLEVSKSVIETLQRKNIVEIVSGDVFPKKRRILRGDFKGNISKENLFFGPTGSGKTEALFELIDVYSRKGTVLFLVPEVSVLTHTLSRLKGAFPDLKIGIYHSYLSRARKNLEWYKAASGKIDVLLGTRSAVFVPVKNLSLLIVDEEHDESFYQHTRPSYDAIVVARKISEVFDVPIILSSATPDLWTYREAKEGRIRTFNFTRRFGSLSVEVVDMRNEEKIGSFAKKTLDRIEETLEEGKRVLIYVRRKGFWGRVQCEVCGYVLKCENCDVSLVYHSDTHSLKCHQCGREYGLVESCPRCGGRLVGRTAGTERVERELKRYFPTRRIARVDREVVDNIMELESYIDKLIRGEIDILVGTRLITKSLSVPEIGLVCIMDVDSLIFNPDYSSSLRTFQLVVQALGRASRGDQGKAIIQTYNPEDTIIRKALEEDVNGFYAEELERRKALGYPPYRHLIQVAVKSKNPEVGKNSLTSLKEFLKGEEVLGPVEHWVFKLRGFYRHHLIVKTEDLERVLPKLEKALRILGIDAIVRVDPPTLEVSDEGHHHHHH”, the “soluble on expression in E. coli” value is reported as “not soluble”.
For “AESHWCYEVQAESSNYPCLVPVKWGGNCQKDRQSPINIVTTKAKVDKKLGRFFFSGYDKKQTWTVQNNGHSVMMLLENKASISGGGLPAPYQAKQLHLHWSDLPYKGSEHSLDGEHFAMEMHIVHEKEKGTSRNVKEAQDPEDEIAVLAFLVEAGTQVNEGFQPLVEALSNIPKPEMSTTMAESSLLDLLPKEEKLRHYFRYLGSLTTPTCDEKVVWTVFREPIQLHREQILAFSQKLYYDKEQTVSMKDNVRPLQQLGQRTVIKS”, the “soluble on expression in E. coli” value was “soluble”.
